{
  "source": "paper PMC10973363",
  "about": "“Insights into the modulation of bacterial NADase activity by phage proteins” (Nature Communications, 2024)",
  "binders": {"B1": {"name": "defense-associated sirtuin 2 (DSR2), full-length wild type (enzyme, Bacillus subtilis 29R, UniProt P0DXN8 1-1005, looked up)", "chain": "MVKVDLESKRYGEKLKEVFLMLDNNVVECIKEITESSRNGKLVFFVGAGVSTLSDYPQWWRLVDKYHEELYGSPKKGNYSSDEYLRIPQIFYNVKGEMAFDGILKDFFQVDKPTNPIHDKILAMNPAHVITTNYDNLIDTACWKRGKYFSVISAEEDVANATSSRYLLKVHGDFRKGFKGENVVLKEDDYLNYDQNYPLISNLMKTIIATHTIVFIGYGLGDYNINMLLNWVRKLQKDSFHKPFFIRTDPSPIENETLIYYENKGLRIIDAASLIDSNEYDYLERYSAVMDLLIESQENKFITKDDEVIDYIYGKISPLFALQYIRKIDLKHVFEYDYHFEVNGTVVRHKNKGFGYMERFFELKESCDERSKLSKKQYERFNALFNFFEKNGVICMAKDAGTLNTSIEINSLAYHGKYDVMKKFIEEQSVSIEDDYKKAFFLACLGRWEESYDLYSNIILNSIDESNGCVYYLSQINRYRIYQSITQAVTQFNGLGLLTFGRHYKPFTDEFLARIEREMTNFNIDDLFNGMPFEFQKKYKILEFLSDNQFLYDDTVKLFELTNKVRSEMSEGSYSFGMSSDIVVLLRLYDNLRFLYENCLWSVSFHEFHQYIRNSMSLLIEKAEYERTRDIDELGFSFFGKKSGFFMEYYDFVNISRHFKIDDIKNLERSCSIDKIRFGEQEKIEEYLVGIAEEITKQFSANGMNVVFYTQFISEAKAALYFAKYVKLSEEGLGKIVKALLFYFPERDLDIGKRYVWLERLTKCNELPKSIISIIDDFLVLQAEKHIDQNYSEVSSNGLYSRDYGALIKHFEKNFISKRLSEITLCLTQDKQKQIDFLFKLLPLLSTNAKSHLLSFKSVENINDLMNGIRIGLIDEFTPEHEELIIEYLETRKVNYIVEKEKGIQTFSSNDYMSTFGIWYFLEEINNSKMEEFIGMDDQYDFFVDPENFDYKKFIPSWLKNYNDKLLGKIAGNKHMKHHVIEVLKERVKNSNDKRYLEILMNYFI", "notes": "DSR2 from Bacillus subtilis 29R, WP_029317421; Cloned into the 2CT-10 vector (Addgene plasmid #55209) with His-MBP tag and TEV site; DSR2-TTP was cloned into a pET-derived vector with an N-terminal His tag; also called WT DSR2; full-length DSR2; source: E. coli Rosetta (DE3), purified (Ni-NTA, TEV cleavage, anion exchange, gel filtration); not shown: His, N-terminal, cleaved; MBP, N-terminal, …"}, "B2": {"name": "tail tube protein (TTP) from phage SPR, His-tagged (natural protein)", "chain": "MKTVIQDTADVYFKRKSDGKLVFTAEAQTASFSQAISEEKLRGGIGNKPLYILKSEKEINLTVKNAFFDLEWLAMTQGETIQEETKVKVFDREHGLIVDDTNKVTLKGKPVSDVTFYNKKGLTYKIAVSTDGTYTIPTAFAAAKDKLTAVYQIEKVGRRLAIKASKFSERYEVEYRTIAYNPDTEEVYSDIYIQFPNVSPSGEFEMSLENGNALAPEIKFEALADTDTDEMAVVIEASRDENTAAPVEDTTGSTQSSDLGGTTE", "notes": "tail tube protein of phage SPR, WP_010328117; C-terminal portion aa 240-264 not built in the cryo-EM model of the tube; Cloned into a pET-derived vector with an N-terminal His tag; Alone it polymerises into a tube of hexameric rings (cryo-EM); also called His-tagged TTP; tagged TTP; source: E. coli Rosetta (DE3), purified (Ni-NTA, anion exchange, gel filtration); not shown: His, N-terminal, kept"}},
  "key": {"[1]": {"target": "B2", "test": "cryo-EM structure; protein complexes (co-expressed and co-purified) or TTP tube at 0.5 mg/ml on Quantifoil Au grids, Titan Krios 300 kV", "settings": "both partners purified"}, "[2]": {"target": "T1, DSR anti-defense 1 (DSAD1), His-tagged (UniProt Q796A8 1-120)", "T1 construct": "phage-encoded DSAD1, WP_004399562; aa 1-9 not built in the cryo-EM model; Cloned into a pET-derived vector with an N-terminal His tag; also called anti-DSR2 protein; His-tagged DSAD1; source: E. coli Rosetta (DE3), purified (Ni-NTA, anion exchange, gel filtration); not shown: His, N-terminal, kept", "T1 sequence": "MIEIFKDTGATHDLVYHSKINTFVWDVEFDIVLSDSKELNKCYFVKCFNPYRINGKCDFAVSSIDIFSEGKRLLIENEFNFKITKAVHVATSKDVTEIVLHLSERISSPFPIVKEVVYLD", "test": "cryo-EM structure; protein complexes (co-expressed and co-purified) or TTP tube at 0.5 mg/ml on Quantifoil Au grids, Titan Krios 300 kV", "settings": "both partners purified"}, "[3]": {"target": "the molecule itself", "test": "native gel or EMSA; purified DSR2 at 1 mg/mL in gel-filtration buffer (25 mM Tris-HCl pH 7.5, 150 mM NaCl, 2 mM DTT) on a 5% native gel, 120 V, 40 min, 4 °C, Coomassie staining"}, "[4]": {"target": "the molecule itself", "test": "cryo-EM structure; protein complexes (co-expressed and co-purified) or TTP tube at 0.5 mg/ml on Quantifoil Au grids, Titan Krios 300 kV"}, "[5]": {"target": "B1", "test": "pull-down; N-terminal His-tagged TTP or DSAD1 on Ni-NTA agarose beads, excess untagged DSR2 variants added, 1 h at 4 °C, 25 mM Tris-HCl pH 7.5, 300 mM NaCl, washes with 10 mM imidazole, SDS-PAGE with Coomassie staining", "settings": "both partners purified"}, "[6]": {"target": "T2, DSR2 CTD-only protein (ΔSIR2, aa 304-1005) (Bacillus subtilis 29R, UniProt P0DXN8 304-1005)", "T2 construct": "DSR2 from Bacillus subtilis 29R, WP_029317421, C-terminal domain aa 304-1005; source: E. coli Rosetta (DE3), purified (Ni-NTA, TEV cleavage, anion exchange, gel filtration); not shown: His, N-terminal, cleaved; MBP, N-terminal, cleaved", "T2 sequence (looked up)": "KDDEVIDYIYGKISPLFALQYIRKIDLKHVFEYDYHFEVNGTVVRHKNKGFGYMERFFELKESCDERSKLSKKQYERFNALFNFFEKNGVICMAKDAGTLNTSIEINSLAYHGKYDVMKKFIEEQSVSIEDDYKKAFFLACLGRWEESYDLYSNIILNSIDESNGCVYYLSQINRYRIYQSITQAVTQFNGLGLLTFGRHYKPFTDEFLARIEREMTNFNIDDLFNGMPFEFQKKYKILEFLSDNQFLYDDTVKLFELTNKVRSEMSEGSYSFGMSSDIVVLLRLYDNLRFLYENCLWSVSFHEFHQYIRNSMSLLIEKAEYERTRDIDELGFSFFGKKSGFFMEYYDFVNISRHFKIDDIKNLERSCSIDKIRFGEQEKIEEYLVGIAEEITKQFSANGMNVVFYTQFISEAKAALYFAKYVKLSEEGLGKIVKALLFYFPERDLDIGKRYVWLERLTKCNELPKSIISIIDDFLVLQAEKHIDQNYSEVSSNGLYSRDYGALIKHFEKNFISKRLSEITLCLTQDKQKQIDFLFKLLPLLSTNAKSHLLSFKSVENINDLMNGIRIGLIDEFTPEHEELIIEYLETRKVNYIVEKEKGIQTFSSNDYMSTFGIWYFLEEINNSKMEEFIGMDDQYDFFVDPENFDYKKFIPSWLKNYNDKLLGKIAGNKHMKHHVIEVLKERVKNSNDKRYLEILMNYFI", "test": "pull-down; N-terminal His-tagged TTP or DSAD1 on Ni-NTA agarose beads, excess untagged DSR2 variants added, 1 h at 4 °C, 25 mM Tris-HCl pH 7.5, 300 mM NaCl, washes with 10 mM imidazole, SDS-PAGE with Coomassie staining", "settings": "both partners purified"}},
  "data": [
    {"binder": "B1", "values": [
      {"measurement": "stoichiometry N", "setting": "[1]", "result": 4, "unit": "TTP per DSR2 tetramer"},
      {"measurement": "stoichiometry N", "setting": "[2]", "result": 1, "unit": "DSAD1 per DSR2 dimer"},
      {"measurement": "stoichiometry N", "setting": "[3]", "result": 4}
    ]},
    {"binder": "B2", "values": [
      {"measurement": "stoichiometry N", "setting": "[4]", "result": 6},
      {"measurement": "binding result", "setting": "[5]", "result": "binds"},
      {"measurement": "binding result", "setting": "[6]", "result": "binds"}
    ]}
  ]
}
